# Assay results reported in US20190137501.
# B1: protein-tyrosine phosphatase 1b (PTP1b) (protein)
# chain: MEMEKEFEQIDKSGSWAAIYQDIRHEASDFPCRVAKLPKNKNRNRYRDVSPFDHSRIKLHQEDNDYINASLIKMEEAQRSYILTQGPLPNTCGHFWEMVWEQKSRGVVMLNRVMEKGSLKCAQYWPQKEEKEMIFEDTNLKLTLISEDIKSYYTVRQLELENLTTQETREILHFHYTTWPDFGVPESPASFLNFLFKVRESGSLSPEHGPVVVHCSAGIGRSGTFCLADTCLLLMDKRKDPSSVDIKKVLLEMRKFRMGLIQTADQLRFSYLAVIEGAKFIMGDSSVQDQWKELSHEDLEPPPEHIPPPPRPPKRILEPHNGKCREFFPNHQWVKEETQEDKDCPIKEEKGSPLNAAPYGIESMSQDTEVRSRVVGGSLRGAQAASPAKGEPSLPEKDEDHALSYWKPFLVNMCVATVLTAGAYLCYRFLFNSNT
# Target: epidermal growth factor receptor (EGFR)
protein,measurement,value
B1,EGFR Y1173 phosphorylation (semi-quantitative Western blot),inhibition of PTP1b increased EGFR Y1173 phosphorylation in GFP control cells treated with 0.25 nM EGF
